Literature values in publication PMC2778592.

Biological target: EGFR (Homo sapiens) (UniProt P00533)

Kd: 74 µM
Substance: tenascin-C Ten14 EGF-L repeat (from UniProt P24821)
